{
  "source": "patent US20170043011A1",
  "molecular_target": "human CD81 on Hep3B hepatoma cells (human) (UniProt P60033)",
  "sequence (P60033 whole entry)": "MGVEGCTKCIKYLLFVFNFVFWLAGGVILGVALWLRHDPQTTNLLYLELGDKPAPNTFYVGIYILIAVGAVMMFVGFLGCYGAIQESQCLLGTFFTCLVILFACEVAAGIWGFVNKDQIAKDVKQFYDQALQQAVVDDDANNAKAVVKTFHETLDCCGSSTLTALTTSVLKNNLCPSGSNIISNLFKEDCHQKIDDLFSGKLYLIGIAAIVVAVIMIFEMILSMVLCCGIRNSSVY",
  "experiment": "cell-based or functional assay",
  "data": [
    {"substance": "mouse anti-human CD81 monoclonal antibody, clone 1.3.3.22 (Santa Cruz Biotechnology)", "values": [
      {"measurement": "fold decrease in infectivity of Bole1a HCVpp on Hep3B cells (luciferase RLU)", "result": 10, "unit": "fold"}
    ]}
  ]
}
